Data reported in US20140087995A1 (published 2014).
Numbered stars: 1 amine (or outer) side, 2 acyl side, 3 side chain; on linkers, the order of the positions; unused ones are H or OH. Bridge positions count the residues as written; N and C are the ends. Side chains are listed from the residue outwards. Ends that are not written are not given here. * marks the point of attachment. C20 diacid = O=C(O)CCCCCCCCCCCCCCCCCCC(=O)*; γGlu = O=C(O)[C@H](CCC(=O)[*:2])N[*:1]

T1: rat calcitonin receptor (rat, UniProt P32214 25-516)
T1 construct: whole, on cells; Membranes of transiently transfected BHK tk'ts 13 cells (Assay VIII); also called rCTR
T1 sequence (looked up): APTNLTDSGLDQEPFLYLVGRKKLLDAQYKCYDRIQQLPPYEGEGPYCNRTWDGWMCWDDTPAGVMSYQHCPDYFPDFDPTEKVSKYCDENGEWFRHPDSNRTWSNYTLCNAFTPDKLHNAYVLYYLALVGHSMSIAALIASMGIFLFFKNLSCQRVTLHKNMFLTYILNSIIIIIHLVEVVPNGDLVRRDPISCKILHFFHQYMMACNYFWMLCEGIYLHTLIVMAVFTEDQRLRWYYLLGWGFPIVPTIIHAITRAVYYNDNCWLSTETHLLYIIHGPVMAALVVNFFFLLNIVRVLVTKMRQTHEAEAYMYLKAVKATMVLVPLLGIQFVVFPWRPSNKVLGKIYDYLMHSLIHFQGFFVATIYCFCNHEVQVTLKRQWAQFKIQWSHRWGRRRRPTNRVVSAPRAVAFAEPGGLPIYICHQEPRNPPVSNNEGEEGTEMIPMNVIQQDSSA

T2: human calcitonin receptor (human, UniProt P30988 25-474)
T2 construct: whole, on cells; Membranes of a stably transfected BHK cell line (Assay VII); also called hCTR; hCT
T2 sequence (looked up): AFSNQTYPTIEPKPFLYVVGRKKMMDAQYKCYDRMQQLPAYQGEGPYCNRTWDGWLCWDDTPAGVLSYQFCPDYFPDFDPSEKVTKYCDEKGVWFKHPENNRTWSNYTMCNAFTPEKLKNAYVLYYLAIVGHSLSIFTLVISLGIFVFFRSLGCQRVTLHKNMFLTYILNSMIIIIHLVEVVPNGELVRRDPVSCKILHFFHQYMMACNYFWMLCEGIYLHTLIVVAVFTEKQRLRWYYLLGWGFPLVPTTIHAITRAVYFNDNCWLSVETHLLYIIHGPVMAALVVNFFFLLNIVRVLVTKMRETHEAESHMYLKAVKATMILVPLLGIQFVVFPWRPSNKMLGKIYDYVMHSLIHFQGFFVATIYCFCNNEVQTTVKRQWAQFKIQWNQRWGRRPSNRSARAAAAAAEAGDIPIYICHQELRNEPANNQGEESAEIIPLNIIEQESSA

T3: rat amylin receptor (rat calcitonin receptor + rat RAMP 3) (rat, UniProt P32214 25-516; Q9JJ73 23-147)
T3 construct: whole, on cells; Membranes of transiently transfected BHK tk'ts 13 cells (Assay VI); also called rAmylin-R; rat amylin 3(a) receptor
T3 sequence (looked up) 1: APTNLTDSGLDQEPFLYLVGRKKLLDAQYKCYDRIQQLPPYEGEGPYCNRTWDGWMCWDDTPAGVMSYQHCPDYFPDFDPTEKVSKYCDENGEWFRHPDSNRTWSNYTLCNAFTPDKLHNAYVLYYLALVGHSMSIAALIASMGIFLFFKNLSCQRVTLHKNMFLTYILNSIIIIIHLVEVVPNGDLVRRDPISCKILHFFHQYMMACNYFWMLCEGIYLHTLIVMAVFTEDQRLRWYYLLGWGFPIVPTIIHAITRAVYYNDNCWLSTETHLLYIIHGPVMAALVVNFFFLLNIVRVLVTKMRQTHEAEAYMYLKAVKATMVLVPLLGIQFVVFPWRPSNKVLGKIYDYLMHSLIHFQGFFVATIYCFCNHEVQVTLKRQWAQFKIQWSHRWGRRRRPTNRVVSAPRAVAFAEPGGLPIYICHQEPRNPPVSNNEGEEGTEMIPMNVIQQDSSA
T3 sequence (looked up) 2: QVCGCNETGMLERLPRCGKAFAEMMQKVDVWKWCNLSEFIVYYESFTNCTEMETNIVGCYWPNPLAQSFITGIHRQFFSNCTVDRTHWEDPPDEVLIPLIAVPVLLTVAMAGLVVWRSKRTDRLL


Columns and labels:
[1] = target: T1, rat calcitonin receptor; experiment: ratio IC50 rat calcitonin receptor / IC50 rat amylin receptor (reference)
[2] = target: T2, human calcitonin receptor; experiment: ratio IC50 human calcitonin receptor / IC50 human amylin receptor (reference)
How it was run: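 Membranes (35 ng/μL final) + SPA beads, 50 mM Hepes pH 7.4 buffer with 1 mM CaCl2, 5 mM MgCl₂, 0.1% OA, 0.02% Tween20; 120 min, 25° C, shaking; centrifuged, counted; IC₅₀ by one-site binding competition.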

[3] = target: T1, rat calcitonin receptor; experiment: SPA competition with 125I-calcitonin, membranes of BHK cells with rat calcitonin receptor (Assay VIII)
[4] = target: T3, rat amylin receptor (rat calcitonin …); experiment: SPA competition with 125I-rat amylin, membranes of BHK cells with rat calcitonin receptor + rat RAMP3 (Assay VI)

Row | Ratio rCT/rAmylin binding [1] | Ratio hCT/hAmylin binding [2] | IC50 [3] | IC50 [4] | Binder
1 | 84.9 | 46.5 | 196 nM | 2.31 nM | K([γGlu-γGlu-C20 diacid])CNTATCATQRLAEFLRHSSPNFGAIPSSTNVGRNTY-NH2 (disulfide 2-7; N-terminus assumed; SMILES CC[C@H](C)[C@H](NC(=O)[C@H](C)NC(=O)CNC(=O)[C@H](Cc1ccccc1)NC(=O)[C@H](CC(N)=O)NC(=O)[C@@H]1CCCN1C(=O)[C@H](CO)NC(=O)[C@H](CO)NC(=O)[C@H](Cc1c[nH]cn1)NC(=O)[C@H](CCCNC(=N)N)NC(=O)[C@H](CC(C)C)NC(=O)[C@H](Cc1ccccc1)NC(=O)[C@H](CCC(=O)O)NC(=O)[C@H](C)NC(=O)[C@H](CC(C)C)NC(=O)[C@H](CCCNC(=N)N)NC(=O)[C@H](CCC(N)=O)NC(=O)[C@@H](NC(=O)[C@H](C)NC(=O)[C@@H]1CSSC[C@H](NC(=O)[C@@H](N)CCCCNC(=O)CC[C@H](NC(=O)CC[C@H](NC(=O)CCCCCCCCCCCCCCCCCCC(=O)O)C(=O)O)C(=O)O)C(=O)N[C@@H](CC(N)=O)C(=O)N[C@@H]([C@@H](C)O)C(=O)N[C@@H](C)C(=O)N[C@@H]([C@@H](C)O)C(=O)N1)[C@@H](C)O)C(=O)N1CCC[C@H]1C(=O)N[C@@H](CO)C(=O)N[C@@H](CO)C(=O)N[C@H](C(=O)N[C@@H](CC(N)=O)C(=O)N[C@H](C(=O)NCC(=O)N[C@@H](CCCNC(=N)N)C(=O)N[C@@H](CC(N)=O)C(=O)N[C@H](C(=O)N[C@@H](Cc1ccc(O)cc1)C(N)=O)[C@@H](C)O)C(C)C)[C@@H](C)O, also called compound 88)
2 | 88.5 | 17.6 | 16.1 nM | 0.182 nM | K([γGlu-γGlu-C20 diacid])CNTATCATQRLAEFLRHSSPNFGAIPSSTNVGPETY-NH2 (disulfide 2-7; N-terminus assumed; SMILES CC[C@H](C)[C@H](NC(=O)[C@H](C)NC(=O)CNC(=O)[C@H](Cc1ccccc1)NC(=O)[C@H](CC(N)=O)NC(=O)[C@@H]1CCCN1C(=O)[C@H](CO)NC(=O)[C@H](CO)NC(=O)[C@H](Cc1c[nH]cn1)NC(=O)[C@H](CCCNC(=N)N)NC(=O)[C@H](CC(C)C)NC(=O)[C@H](Cc1ccccc1)NC(=O)[C@H](CCC(=O)O)NC(=O)[C@H](C)NC(=O)[C@H](CC(C)C)NC(=O)[C@H](CCCNC(=N)N)NC(=O)[C@H](CCC(N)=O)NC(=O)[C@@H](NC(=O)[C@H](C)NC(=O)[C@@H]1CSSC[C@H](NC(=O)[C@@H](N)CCCCNC(=O)CC[C@H](NC(=O)CC[C@H](NC(=O)CCCCCCCCCCCCCCCCCCC(=O)O)C(=O)O)C(=O)O)C(=O)N[C@@H](CC(N)=O)C(=O)N[C@@H]([C@@H](C)O)C(=O)N[C@@H](C)C(=O)N[C@@H]([C@@H](C)O)C(=O)N1)[C@@H](C)O)C(=O)N1CCC[C@H]1C(=O)N[C@@H](CO)C(=O)N[C@@H](CO)C(=O)N[C@H](C(=O)N[C@@H](CC(N)=O)C(=O)N[C@H](C(=O)NCC(=O)N1CCC[C@H]1C(=O)N[C@@H](CCC(=O)O)C(=O)N[C@H](C(=O)N[C@@H](Cc1ccc(O)cc1)C(N)=O)[C@@H](C)O)C(C)C)[C@@H](C)O)
3 | 48.8 | 28 | 115 nM | 2.37 nM | K([γGlu-γGlu-C20 diacid])CNTATCATQRLAEFLRHSSPNFGAIPSSTNVGSRTY-NH2 (disulfide 2-7; N-terminus assumed; SMILES CC[C@H](C)[C@H](NC(=O)[C@H](C)NC(=O)CNC(=O)[C@H](Cc1ccccc1)NC(=O)[C@H](CC(N)=O)NC(=O)[C@@H]1CCCN1C(=O)[C@H](CO)NC(=O)[C@H](CO)NC(=O)[C@H](Cc1c[nH]cn1)NC(=O)[C@H](CCCNC(=N)N)NC(=O)[C@H](CC(C)C)NC(=O)[C@H](Cc1ccccc1)NC(=O)[C@H](CCC(=O)O)NC(=O)[C@H](C)NC(=O)[C@H](CC(C)C)NC(=O)[C@H](CCCNC(=N)N)NC(=O)[C@H](CCC(N)=O)NC(=O)[C@@H](NC(=O)[C@H](C)NC(=O)[C@@H]1CSSC[C@H](NC(=O)[C@@H](N)CCCCNC(=O)CC[C@H](NC(=O)CC[C@H](NC(=O)CCCCCCCCCCCCCCCCCCC(=O)O)C(=O)O)C(=O)O)C(=O)N[C@@H](CC(N)=O)C(=O)N[C@@H]([C@@H](C)O)C(=O)N[C@@H](C)C(=O)N[C@@H]([C@@H](C)O)C(=O)N1)[C@@H](C)O)C(=O)N1CCC[C@H]1C(=O)N[C@@H](CO)C(=O)N[C@@H](CO)C(=O)N[C@H](C(=O)N[C@@H](CC(N)=O)C(=O)N[C@H](C(=O)NCC(=O)N[C@@H](CO)C(=O)N[C@@H](CCCNC(=N)N)C(=O)N[C@H](C(=O)N[C@@H](Cc1ccc(O)cc1)C(N)=O)[C@@H](C)O)C(C)C)[C@@H](C)O, also called compound 89)
4 | 113 | 53.6 | 38.3 nM | 0.339 nM | K([γGlu-γGlu-C20 diacid])CNTATCATQRLAEFLRHSSPNFGAIPSSTNVGPRTY-NH2 (disulfide 2-7; N-terminus assumed; SMILES CC[C@H](C)[C@H](NC(=O)[C@H](C)NC(=O)CNC(=O)[C@H](Cc1ccccc1)NC(=O)[C@H](CC(N)=O)NC(=O)[C@@H]1CCCN1C(=O)[C@H](CO)NC(=O)[C@H](CO)NC(=O)[C@H](Cc1c[nH]cn1)NC(=O)[C@H](CCCNC(=N)N)NC(=O)[C@H](CC(C)C)NC(=O)[C@H](Cc1ccccc1)NC(=O)[C@H](CCC(=O)O)NC(=O)[C@H](C)NC(=O)[C@H](CC(C)C)NC(=O)[C@H](CCCNC(=N)N)NC(=O)[C@H](CCC(N)=O)NC(=O)[C@@H](NC(=O)[C@H](C)NC(=O)[C@@H]1CSSC[C@H](NC(=O)[C@@H](N)CCCCNC(=O)CC[C@H](NC(=O)CC[C@H](NC(=O)CCCCCCCCCCCCCCCCCCC(=O)O)C(=O)O)C(=O)O)C(=O)N[C@@H](CC(N)=O)C(=O)N[C@@H]([C@@H](C)O)C(=O)N[C@@H](C)C(=O)N[C@@H]([C@@H](C)O)C(=O)N1)[C@@H](C)O)C(=O)N1CCC[C@H]1C(=O)N[C@@H](CO)C(=O)N[C@@H](CO)C(=O)N[C@H](C(=O)N[C@@H](CC(N)=O)C(=O)N[C@H](C(=O)NCC(=O)N1CCC[C@H]1C(=O)N[C@@H](CCCNC(=N)N)C(=O)N[C@H](C(=O)N[C@@H](Cc1ccc(O)cc1)C(N)=O)[C@@H](C)O)C(C)C)[C@@H](C)O, also called compound 110)
5 | 159 | 29.1 | 498 nM | 3.14 nM | K([γGlu-γGlu-C20 diacid])CNTATCATQRLAEFLRHSSPNFGAIPSSTNVGHETY-NH2 (disulfide 2-7; N-terminus assumed; SMILES CC[C@H](C)[C@H](NC(=O)[C@H](C)NC(=O)CNC(=O)[C@H](Cc1ccccc1)NC(=O)[C@H](CC(N)=O)NC(=O)[C@@H]1CCCN1C(=O)[C@H](CO)NC(=O)[C@H](CO)NC(=O)[C@H](Cc1c[nH]cn1)NC(=O)[C@H](CCCNC(=N)N)NC(=O)[C@H](CC(C)C)NC(=O)[C@H](Cc1ccccc1)NC(=O)[C@H](CCC(=O)O)NC(=O)[C@H](C)NC(=O)[C@H](CC(C)C)NC(=O)[C@H](CCCNC(=N)N)NC(=O)[C@H](CCC(N)=O)NC(=O)[C@@H](NC(=O)[C@H](C)NC(=O)[C@@H]1CSSC[C@H](NC(=O)[C@@H](N)CCCCNC(=O)CC[C@H](NC(=O)CC[C@H](NC(=O)CCCCCCCCCCCCCCCCCCC(=O)O)C(=O)O)C(=O)O)C(=O)N[C@@H](CC(N)=O)C(=O)N[C@@H]([C@@H](C)O)C(=O)N[C@@H](C)C(=O)N[C@@H]([C@@H](C)O)C(=O)N1)[C@@H](C)O)C(=O)N1CCC[C@H]1C(=O)N[C@@H](CO)C(=O)N[C@@H](CO)C(=O)N[C@H](C(=O)N[C@@H](CC(N)=O)C(=O)N[C@H](C(=O)NCC(=O)N[C@@H](Cc1c[nH]cn1)C(=O)N[C@@H](CCC(=O)O)C(=O)N[C@H](C(=O)N[C@@H](Cc1ccc(O)cc1)C(N)=O)[C@@H](C)O)C(C)C)[C@@H](C)O)
